The target in assay [1] is Trypanosoma brucei AlkB homolog (TbABH-His6) (Trypanosoma brucei brucei (strain 427 genomic DNA)). Description: SEC. (SEC sorts molecules by how far they enter the pores of the column.)
The target is the same in assay [2]. Briefly: native gel or EMSA. In general terms: In EMSA bound probe runs differently from free probe, usually more slowly.

On to “Trypanosoma brucei AlkB homolog (TbABH-His6) (enzyme)”, for which the stoichiometry N was 2 in assay [1] and 4 in assay [2].

What is called stoichiometry N is the number of molecules, sites or subunits per partner or assembly.

For the origin of these results see PMC3340446.
